The text below walks through data of patent US20140370037A1 (published 2014).

In the test the target is T1, human DLL3 antigen (human, UniProt Q9NYJ7 27-492, limits assumed).
T1 construct: also called immobilized human DLL3; recombinant human DLL3
T1 sequence (looked up): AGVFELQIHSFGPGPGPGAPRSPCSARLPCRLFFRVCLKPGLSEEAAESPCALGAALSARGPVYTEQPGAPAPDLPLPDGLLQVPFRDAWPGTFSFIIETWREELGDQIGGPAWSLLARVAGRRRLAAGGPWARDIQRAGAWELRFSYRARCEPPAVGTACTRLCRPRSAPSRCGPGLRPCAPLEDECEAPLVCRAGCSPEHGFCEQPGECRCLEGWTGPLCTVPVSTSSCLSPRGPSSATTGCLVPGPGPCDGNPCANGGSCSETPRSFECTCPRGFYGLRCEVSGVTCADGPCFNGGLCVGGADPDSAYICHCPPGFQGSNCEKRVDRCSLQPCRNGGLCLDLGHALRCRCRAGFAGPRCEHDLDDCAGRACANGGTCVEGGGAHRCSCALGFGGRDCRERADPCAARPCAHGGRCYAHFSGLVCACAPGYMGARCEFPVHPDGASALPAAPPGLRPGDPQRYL
Kind of test: ELISA or flow cytometry screen. In general terms: ELISA stands for enzyme-linked immunosorbent assay.

B1: SC16.117 (antibody, V domains shown)
VH: QVQLKESGPGLVAPSQSLSIPCTVSGFSLTNYGVHWVRQPPGKGLEWLGVIWAGGITNYNSALMSRLSISEDNSKSQVFLKMNSLQTDDTAMYYCARNLGPYAMDYWGQGTSVTVSS
VL: DIQMNQSPSSLSASLGDTITITCHVSQNINVWLSWYQQKPGNIPKLLIQKASNLHTGVPSRFSGSGSGTGFTLTISSLQPEDIATYYCQQGQSYPFTFGSGTKLEIK
notes: murine mAb
Consider B1, for which the binding result is on record as “binds”.

B2: SC16.125 (antibody, V domains shown)
VH: DVQLQESGPDLVKPSQSLSLTCTVTGYSITSGYSWHWIRQFPGNKLEWMGYIHYSGSTNYNPSLKSRISITRDTSKNQFFLQFKSVTTEDSATYYCALEGNYDGFAYWGQGTLVTVS
VL: DIQMNQSPSSLSASLGDTITITCHASQNINVWLSWYQQKPGNIPKLLIYKASILHTGVPSRFSGSGSGTGFTLTISSLQPEDIATYSCQQGQSYPYTFGGGTKLEIK
notes: murine mAb
For the molecule B2, the binding result is “binds”.

B3: SC16.110 (antibody, V domains shown)
VH: EVQLQQSGPGLVRTGASVKISCKASGYSFTGYYMHWVKQSHGKSLEWIGYISCYNGATTYNQNFKGKATFIVDTSSSTAYMQFNSLTSEDSAVYYCARSDGGHAMDYWGQGTSVTVSS
VL: NIVMTQTPKFLLVSAGDRVTITCKASQSVSNDVAWYQQKPGQSPKLLIYYASNRYTGVPDRFTGSGYGTDFTFTISTVQAEDLAVYFCQQDYSSPPTFGGGTKLEIK
notes: murine mAb
Consider B3, for which the binding result is recorded as “binds”.

B4: SC16.104 (antibody, V domains shown)
VH: QVQLKESGPDLVQPSQTLSLTCTVSGFSLTFYGVHWVRQPPGKGLEWVGTMGWDDKKYYNSALKSRLSISRDTSKNQVFLKLSSLQTEDTAMYYCTRGGTGFDYWGQGTTLTVSS
VL: QIVLSQSPAILSASPGEKVTMTCRASSSVSYIHWYRQKPGSSPKPWIYATSNLASGVPARFSGSGSGTSYSLTISRVEAEDAATYYCQQWSSNPPTFGAGTKLELK
notes: murine mAb
For B4, the binding result is on record as “binds”.

B5: SC16.106 (antibody, V domains shown)
VH: QVQLKQSGPGLVAPSQSLFITCTVSGFSLTSYEINWVRQPPGKGLEWLGVIWTGGSTNYNSALISRLSISKDNSKSLVFLKMNSLQTDDTAIYYCVRGVYAMDYWGQGTSVTVSS
VL: DIKMTQSPSSMYASLGERVTITCKASQDINSYLSWFQQKPGKSPKTLIYRANRLVDGVPSRFSGSGSGQDYSLTISSLEYEDMGIYYCLQYDEFPFTFGSGTKLEIK
notes: murine mAb
As to B5, the binding result was “binds”.

B6: SC16.124 (antibody, V domains shown)
VH: EVQLQQSGPELVKPGASVKMSCKASGYTFTSYVMHWVKQKPGQGLEWIGYINPYNDGTKYNEKFKGKATLTSDKSSSTAYMELSSLTSEDSAVYYCARGALYYGNYLGYFDVWGAGTTVTVSS
VL: DIQMTQSPASQSASLGESVTITCLASQTIGTWLAWYQQKPGKSPQLLISAATSLADGVPSRFSGSGSGTKFSFKISSLQAEDFVSYYCQQLYSTPWTFGGGTKLEIK
notes: murine mAb
B6: the binding result is given as “binds”.

B7: SC16.111 (antibody, V domains shown)
VH: EVQLQQSGPELEKPGASVKISCKASGYSFTGYNMNWVKQSNGKSLEWIGNIDPYYGGSSYKQKFEGKATLTVDKSSSTAYMQLKSLTSEDSAVYYCARGGSNFFDYWGQGTTLTVSS
VL: DIQMTQSPASLAASVGETVTITCRASENIYYSLAWYQQKQGKSPQLLIYNANSLEDGVPSRFSGSGSGTQYSMKINSMQPEDTATYFCKQTYDVPLTFGAGTKLELK
notes: murine mAb
Consider B7, for which the binding result is given as “binds”.

B8: SC16.121 (antibody, V domains shown)
VH: EVQLVESGGGLVQPKGSLKLSCAASGFTFNTYAMNWVRQAPGKGLEWVARIRIKSNNYATYYADSVKDRFTISRDDSQNMLYLQMNNLKTEDTAVYYCVRQGYSYDWGPWFAYWGQGTLVTVSA
VL: QIVLTQSPAIMSASPGEKVTITCSASSSVSYMHWFQQKPGTSPKLWIYSTSNLASGVPARFSGSGSGTSYSLTISRMEAEDAATYYCQQRSSYPPTFGGGTKLEIKR
notes: murine mAb
For B8, the binding result is recorded as “binds”.

B9: SC16.107 (antibody, V domains shown)
VH: EVQLQQSGPELVKPGASVKMSCKASGYTFTNYVMHWVKQKPGQGLEWIGYINPYNDGTKYNEKFKGKATLTSDKSSTTAYMALSSLTSEDSAVYYCAVAYYSNWGFAYWGQGTLVTVSA
VL: DIVMTQSHKFMSTSVGDRVSITCKASQDVNTAVGWYQQKPGQSPKLLIYSASYRYTGVPDRFTGSGSGTDFTFTISSVQAEDLAVYYCQQHYSSPYTFGGGTKLEIKR
notes: murine mAb
Regarding B9, the binding result was “binds”.

B10: SC16.8 (antibody, V domains shown)
VH: QAQLQQSGAELVRPGTSVKVSCKASGYAFTNYLIEWVKQRPGQGLEWIGVINPGTGGTNYNENFKGKATLTADKSSSTAYMQLSSLTSDDSAVYFCARSPYDYHEGAMDYWGQGTSVTVSS
VL: EIQMTQSPSSMSASLGDRITITCQATQDIVKNLNWYQQKPGKPPSFLIYYAIELAEGVPSRFSGSGSGSDYSLTISNLESEDFADYYCLQFYEFPFTFGAGTKLELK
notes: murine mAb
For the molecule B10, the binding result was “binds”.

B11: SC16.114 (antibody, V domains shown)
VH: EVQLQQSGAELVKPGASVKLSCTASGFNIKDTYIHWVKQRPEQGLEWIGRIDPANGNTKYDPKFQGKATITPDTSSNTAYLQLSSLTSEDTAVYYCARSWRNYGSSFWYFDVWGAGTTVTVSS
VL: QIVLSQSPAILSASPGEKVTMTCRASSSVSYMHWYQQKPGSSPKPWIYATSNLASGVPARFSGSGSGTSYSLTISRVEAEDAATYYCQQWSSNPYTFGGGTKLEIKR
notes: murine mAb
For B11, the binding result is “binds”.

B12: SC16.118 (antibody, V domains shown)
VH: EVQLQQSGPDLVKPGASVKISCKASGYSFTGYYMHWVKQSHGKSLEWIGRVNPNNGGTSYNQKFKGKAILTADKSSSTAYMELRSLTSEDSAVYYCARGSYDYAEGWGQGTLVTVSA
VL: DIVLTQSPASLAVSLGQRATISCKASQSVDYDGDSYLTWYQQKPGQPPKLLIYAASNLESGIPARFSGSGSGTDFTLNIHPVEEEDAATYYCQQSNEDPYTFGGGTKLEIKR
notes: murine mAb
Take B12: the binding result was “binds”.

B13: SC16.134 (antibody, V domains shown)
VH: EVQLQQSGPDLVKPGASVKISCKASGYSFTGYYMHWVKQSHGKRLEWIGRVNPNNGGTNYNQKFKGKAILTVDKSSSTAYMELRSLTSEDSAVYYCARGSYDNAEGWGQGTLVTVSA
VL: DIVLTQSPASLAVSLGQRATISCKASQSVDHAGDSYMNWYQQKPGQPPKLLIYAASNLESGIPARFSGSGSGTDFTLNIHPVEEEDAATYYCQQSNEDPYTFGGGTKLEIKR
notes: murine mAb
Regarding B13, the binding result was “binds”.

B14: SC16.101 (antibody, V domains shown)
VL: QIVLTQSPAIMSASLGERVTMTCTASSSVSSSYLHWYQQKPGSSPKLWIYSTSNLASGVPARFSGSESGTSYSLTISNMEAEDAATYYCHQYHRSPFTFGSGTKLEIK
V domain: QVTLKESGPGILQPSQTLSLTCSFSGFSLSTSGMGVGWIRQPSGKGLEWLAHIWWDDVKRYNPALKSRLTISKDASSSQVFLKIASVDTAETATYYCAHILDRAYYFDYWGQGTTLTVTS
notes: murine mAb
For the molecule B14, the binding result is “binds”.

B15: SC16.123 (antibody, V domains shown)
VH: QVALKESGPGILQPSQTLSLTCSFSGFSLSTSGMGVGWIRQPSGKGLEWLAHIWWDDVKRYNPALKSRLTISKDTSSSQVFLKIASVDTADTATYYCARMEDYGSSSYFDFWGHGTTLTVSS
VL: QIVLTQSPAIMSASLGERVTMTCTASSSVSSSYLHWYQQKPGSSPKLWIYSTSNLASGVPARFSGSGSGTSYSLTISSMETEDAATYYCHQYHRSPFTFGSGTKLEIK
notes: murine mAb
As for B15, the binding result is reported as “binds”.

B16: SC16.10 (antibody, V domains shown)
VH: QVTLKESGPGILQSSQTLSLTCSFSGFSLSTSGMGVGWIRQPSGKGLEWLAHIWWDDVKRYNPVLKSRLTISKDTSSSQVFLKIASVDTADTATYYCARLVDDLYYFDYWGQGTTLTVSS
VL: QIVLTQSPAIMSASLGERVTMTCTASSSVSSSYLHWYQQKPGSSPKLWIYSTSNLASGVPTRFSGSGSGTSYSLTISSMEAEDAATYYCHQYHRSPFTFGSGTKLEIK
notes: murine mAb
For B16, the binding result is given as “binds”.

B17: SC16.11 (antibody, V domains shown)
VH: QIQLVQSGPELKKPGETVKISCKASGYTFTDYSMHWVKQAPGKGLKWMGWINTETVEPTYADDFMGRFAFSLETSASTAFLQINNLENEDTATYFCARFGSYAMDYWGQGTSVTVSS
VL: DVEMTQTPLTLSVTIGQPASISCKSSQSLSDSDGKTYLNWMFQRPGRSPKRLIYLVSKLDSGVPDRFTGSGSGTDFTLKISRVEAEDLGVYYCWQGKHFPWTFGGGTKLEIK
notes: murine mAb
As to B17, the binding result was “binds”.

B18: SC16.109 (antibody, V domains shown)
VL: QIVLTQSPAIMSASPGEKVTMTCSASSSVSYMYWYQQKPGSSPRLLIYDTSNLASGVPVRFSGSGSGTSFSLTISRMEAEDTATYYCQEWSGNPLTFGDGTKLELK
V domain: QIQLVQSGPELKKPGETVKISCKASGYTFTNYGMNWVKQAPGKGLKWMGWINTYTGEPAYADDFKGRFAFSLETSASAAYLQINNLKNEDTATFFCANMRPTRGFAYWGQGTLGTVSA
notes: murine mAb
Consider B18, for which the binding result is “binds”.

B19: SC16.122 (antibody, V domains shown)
VH: EVQLVESGGGLVKPGGSLKLSCAASGFTFSDYYMFWVRQTPEKRLEWVATISDGGSYTYFPDSVKGRFTISRDNAQNNLYLQMSSLKSEDTAMYYCARAGTLYAMDYWGQGTSVTVSS
VL: DIVMTQSQKFMSTSVGDRVSVTCKASQNVGTNVAWYQQKPGQSPKVLIYSASYRYSGVPDRFTGSGSGTDFTLTISNVQSEDLAEFFCQQYNSYPLTFGGGTKLEIK
notes: murine mAb
For B19, the binding result is on record as “binds”.

B20: SC16.88 (antibody, V domains shown)
VH: QVQLQQSGAELARPGASVKLSCKASGYTCTSYWMQWVKQRPGQGLEWIGAIYPGDGDTRYTQKFKGKATLTADKSSSTAYMQLSSLASEDSAVYYCARGRRTEAWFAYWGQGTLVTVSA
VL: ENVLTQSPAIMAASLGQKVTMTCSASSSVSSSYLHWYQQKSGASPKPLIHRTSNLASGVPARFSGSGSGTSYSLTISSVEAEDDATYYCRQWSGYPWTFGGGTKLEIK
notes: murine mAb
Consider B20, for which the binding result is “binds”.
